Laboratory results published in publication PMC12480533 (Nature Communications, 2025).

Target: the molecule itself
Experiment: cryo-EM structure

B1: full-length human SLC30A10 (natural protein, UniProt Q6XR72 1-485, looked up)
chain: MGRYSGKTCRLLFMLVLTVAFFVAELVSGYLGNSIALLSDSFNMLSDLISLCVGLSAGYIARRPTRGFSATYGYARAEVVGALSNAVFLTALCFTIFVEAVLRLARPERIDDPELVLIVGVLGLLVNVVGLLIFQDCAAWFACCLRGRSRRLQQRQQLAEGCVPGAFGGPQGAEDPRRAADPTAPGSDSAVTLRGTSVERKREKGATVFANVAGDSFNTQNEPEDMMKKEKKSEALNIRGVLLHVMGDALGSVVVVITAIIFYVLPLKSEDPCNWQCYIDPSLTVLMVIIILSSAFPLIKETAAILLQMVPKGVNMEELMSKLSAVPGISSVHEVHIWELVSGKIIATLHIKYPKDRGYQDASTKIREIFHHAGIHNVTIQFENVDLKEPLEQKDLLLLCNSPCISKGCAKQLCCPPGALPLAHVNGCAEHNGGPSLDTYGSDGLSRRDAREVAIEVSLDSCLSDHGQSLNKTQEDQCYVNRTHF
For B1, the “stoichiometry N” value was 2.
